Measured values: the Human Domainome abundance scans (Beltran et al. 2025)
± gives the uncertainty stated by the source.

Assay: abundance fitness (aPCA) (normalised: wild type 0, dead -1); higher = more abundant; growth selection in yeast, the domain comes from the species named
Settings: Saccharomyces cerevisiae (strain ATCC 204508 / S288c)
Substance “E3 ubiquitin-protein ligase RSP5 P343G, P39940” has an abundance fitness of -0.018 ± 0.05. “E3 ubiquitin-protein ligase RSP5 P343H, P39940” gave an abundance fitness of 0.09 ± 0.082. “E3 ubiquitin-protein ligase RSP5 P343I, P39940” gave an abundance fitness of 0.017 ± 0.099. Substance “E3 ubiquitin-protein ligase RSP5 P343K, P39940” has an abundance fitness of 0.102 ± 0.07. With “E3 ubiquitin-protein ligase RSP5 P343L, P39940” the abundance fitness was -0.021 ± 0.048. With “E3 ubiquitin-protein ligase RSP5 P343N, P39940” the abundance fitness was 0.116 ± 0.098. Work on “E3 ubiquitin-protein ligase RSP5 P343Q, P39940” yielded an abundance fitness of -0.041 ± 0.059. For “E3 ubiquitin-protein ligase RSP5 P343S, P39940”, the abundance fitness was 0.07 ± 0.056. “E3 ubiquitin-protein ligase RSP5 P343T, P39940” gave an abundance fitness of 0.014 ± 0.057. With “E3 ubiquitin-protein ligase RSP5 P343W, P39940” the abundance fitness was -0.313 ± 0.054. “E3 ubiquitin-protein ligase RSP5 P343Y, P39940” showed an abundance fitness of -0.402 ± 0.35. “E3 ubiquitin-protein ligase RSP5 P362A, P39940” showed an abundance fitness of -0.747 ± 0.046. “E3 ubiquitin-protein ligase RSP5 P362D, P39940” gave an abundance fitness of -0.813 ± 0.097. “E3 ubiquitin-protein ligase RSP5 P362E, P39940” showed an abundance fitness of -0.723 ± 0.076. Work on “E3 ubiquitin-protein ligase RSP5 P362F, P39940” yielded an abundance fitness of -1.41 ± 0.47. With “E3 ubiquitin-protein ligase RSP5 P362G, P39940” the abundance fitness was -0.852 ± 0.044. “E3 ubiquitin-protein ligase RSP5 P362H, P39940” showed an abundance fitness of -0.905 ± 0.28. In the case of “E3 ubiquitin-protein ligase RSP5 P362I, P39940”, the abundance fitness is reported as -0.791 ± 0.12. “E3 ubiquitin-protein ligase RSP5 P362K, P39940” showed an abundance fitness of -1.01 ± 0.1. “E3 ubiquitin-protein ligase RSP5 P362L, P39940” showed an abundance fitness of -0.993 ± 0.051. Work on “E3 ubiquitin-protein ligase RSP5 P362M, P39940” yielded an abundance fitness of -1.2 ± 0.35. In the case of “E3 ubiquitin-protein ligase RSP5 P362Q, P39940”, the abundance fitness is reported as -0.709 ± 0.093. “E3 ubiquitin-protein ligase RSP5 P362S, P39940” showed an abundance fitness of -1.09 ± 0.065. Work on “E3 ubiquitin-protein ligase RSP5 P362T, P39940” yielded an abundance fitness of -0.708 ± 0.067. “E3 ubiquitin-protein ligase RSP5 P362V, P39940” showed an abundance fitness of -0.705 ± 0.048. Substance “E3 ubiquitin-protein ligase RSP5 P362W, P39940” has an abundance fitness of -1.21 ± 0.062. For “E3 ubiquitin-protein ligase RSP5 P362Y, P39940”, the abundance fitness was -1.01 ± 0.18. Work on “E3 ubiquitin-protein ligase RSP5 Q339A, P39940” yielded an abundance fitness of -0.143 ± 0.047. “E3 ubiquitin-protein ligase RSP5 Q339C, P39940” showed an abundance fitness of -0.092 ± 0.07. “E3 ubiquitin-protein ligase RSP5 Q339D, P39940” showed an abundance fitness of -0.602 ± 0.09. Work on “E3 ubiquitin-protein ligase RSP5 Q339E, P39940” yielded an abundance fitness of 0.006 ± 0.054. Substance “E3 ubiquitin-protein ligase RSP5 Q339F, P39940” has an abundance fitness of -0.26 ± 0.074. For “E3 ubiquitin-protein ligase RSP5 Q339G, P39940”, the abundance fitness was -0.256 ± 0.044. With “E3 ubiquitin-protein ligase RSP5 Q339H, P39940” the abundance fitness was -0.134 ± 0.058. With “E3 ubiquitin-protein ligase RSP5 Q339I, P39940” the abundance fitness was -0.073 ± 0.069. Work on “E3 ubiquitin-protein ligase RSP5 Q339K, P39940” yielded an abundance fitness of 0.026 ± 0.077. Work on “E3 ubiquitin-protein ligase RSP5 Q339L, P39940” yielded an abundance fitness of -0.109 ± 0.051. With “E3 ubiquitin-protein ligase RSP5 Q339M, P39940” the abundance fitness was -0.008 ± 0.069. In the case of “E3 ubiquitin-protein ligase RSP5 Q339P, P39940”, the abundance fitness is reported as -0.297 ± 0.062. In the case of “E3 ubiquitin-protein ligase RSP5 Q339R, P39940”, the abundance fitness is reported as -0.051 ± 0.043. With “E3 ubiquitin-protein ligase RSP5 Q339S, P39940” the abundance fitness was -0.138 ± 0.047. In the case of “E3 ubiquitin-protein ligase RSP5 Q339T, P39940”, the abundance fitness is reported as -0.11 ± 0.065. In the case of “E3 ubiquitin-protein ligase RSP5 Q339V, P39940”, the abundance fitness is reported as -0.076 ± 0.045. For “E3 ubiquitin-protein ligase RSP5 Q339W, P39940”, the abundance fitness was -0.406 ± 0.046. “E3 ubiquitin-protein ligase RSP5 Q339Y, P39940” showed an abundance fitness of -0.181 ± 0.1. “E3 ubiquitin-protein ligase RSP5 Q365A, P39940” gave an abundance fitness of 0.097 ± 0.044. In the case of “E3 ubiquitin-protein ligase RSP5 Q365C, P39940”, the abundance fitness is reported as 0.077 ± 0.089. In the case of “E3 ubiquitin-protein ligase RSP5 Q365E, P39940”, the abundance fitness is reported as 0.057 ± 0.059. For “E3 ubiquitin-protein ligase RSP5 Q365F, P39940”, the abundance fitness was -0.034 ± 0.15. In the case of “E3 ubiquitin-protein ligase RSP5 Q365G, P39940”, the abundance fitness is reported as 0.052 ± 0.046. “E3 ubiquitin-protein ligase RSP5 Q365H, P39940” showed an abundance fitness of 0.167 ± 0.11. With “E3 ubiquitin-protein ligase RSP5 Q365K, P39940” the abundance fitness was 0.022 ± 0.064. “E3 ubiquitin-protein ligase RSP5 Q365L, P39940” gave an abundance fitness of 0.033 ± 0.058. In the case of “E3 ubiquitin-protein ligase RSP5 Q365M, P39940”, the abundance fitness is reported as -0.022 ± 0.17. Work on “E3 ubiquitin-protein ligase RSP5 Q365R, P39940” yielded an abundance fitness of 0.014 ± 0.043. Substance “E3 ubiquitin-protein ligase RSP5 Q365S, P39940” has an abundance fitness of 0.038 ± 0.062. With “E3 ubiquitin-protein ligase RSP5 Q365V, P39940” the abundance fitness was -0.014 ± 0.045. With “E3 ubiquitin-protein ligase RSP5 Q365W, P39940” the abundance fitness was 0.051 ± 0.08. “E3 ubiquitin-protein ligase RSP5 Q365Y, P39940” showed an abundance fitness of -0.004 ± 0.1. For “E3 ubiquitin-protein ligase RSP5 Q366A, P39940”, the abundance fitness was 0.047 ± 0.13. “E3 ubiquitin-protein ligase RSP5 Q366C, P39940” gave an abundance fitness of -0.572 ± 0.41. “E3 ubiquitin-protein ligase RSP5 Q366G, P39940” showed an abundance fitness of 0.131 ± 0.064. For “E3 ubiquitin-protein ligase RSP5 Q366H, P39940”, the abundance fitness was -0.304 ± 0.19. Work on “E3 ubiquitin-protein ligase RSP5 Q366L, P39940” yielded an abundance fitness of 0.24 ± 0.11. Work on “E3 ubiquitin-protein ligase RSP5 Q366R, P39940” yielded an abundance fitness of 0.117 ± 0.053. Work on “E3 ubiquitin-protein ligase RSP5 Q366S, P39940” yielded an abundance fitness of -0.008 ± 0.077. For “E3 ubiquitin-protein ligase RSP5 Q366T, P39940”, the abundance fitness was 0.054 ± 0.078. “E3 ubiquitin-protein ligase RSP5 Q366V, P39940” showed an abundance fitness of 0.023 ± 0.11. Substance “E3 ubiquitin-protein ligase RSP5 Q366W, P39940” has an abundance fitness of -0.001 ± 0.061. Substance “E3 ubiquitin-protein ligase RSP5 Q366Y, P39940” has an abundance fitness of 0.307 ± 0.21. In the case of “E3 ubiquitin-protein ligase RSP5 R340A, P39940”, the abundance fitness is reported as 0.018 ± 0.047. “E3 ubiquitin-protein ligase RSP5 R340C, P39940” gave an abundance fitness of 0.064 ± 0.059. In the case of “E3 ubiquitin-protein ligase RSP5 R340D, P39940”, the abundance fitness is reported as -0.256 ± 0.074. Substance “E3 ubiquitin-protein ligase RSP5 R340E, P39940” has an abundance fitness of -0.01 ± 0.063.
